Here are results for three molecules from patent US20120087949, “OLIGONUCLEOTIDE MICELLES” (University of Florida Research Foundation, Inc., published 2012).

Usually Kd stands for the free concentration of one partner at which half of the binding sites on the other are occupied at equilibrium, for simple one-to-one binding.

Data set [1] has as its system unidentified cell-surface target of sgc8 on CCRF-CEM cells. Particulars: 5'-diacyl lipid-(PEG)4, membrane anchored; CITED; value for sgc8 aptamer; CEM cell aggregation with lipo-sgc8-TMR shown here (FIG. 13A); cited from earlier work.
The target of data set [2] is T1, IGHM (immunoglobulin heavy mu chain), on Ramos cells (UniProt P01871 P01871:1-474). The data set can be described thus: flow; Ramos cells; based on lipid unit concentration; 0.116 nM if 1000 copies per micelle. Particulars: tags: endogenous on Ramos cells (ATCC CRL-1596); chain copies: 2; label: 3'-FAM.
Data set [3] concerns the target T1, IGHM (immunoglobulin heavy mu chain), …. As to the kind of experiment: flow; free TDO5 on Ramos cells; compared with micelle; elsewhere quoted as 74 nM (p179, CITED). Particulars: tags: endogenous on Ramos cells (ATCC CRL-1596); chain copies: 2; label: FITC.

T1 sequence (P01871 whole entry, one chain of several): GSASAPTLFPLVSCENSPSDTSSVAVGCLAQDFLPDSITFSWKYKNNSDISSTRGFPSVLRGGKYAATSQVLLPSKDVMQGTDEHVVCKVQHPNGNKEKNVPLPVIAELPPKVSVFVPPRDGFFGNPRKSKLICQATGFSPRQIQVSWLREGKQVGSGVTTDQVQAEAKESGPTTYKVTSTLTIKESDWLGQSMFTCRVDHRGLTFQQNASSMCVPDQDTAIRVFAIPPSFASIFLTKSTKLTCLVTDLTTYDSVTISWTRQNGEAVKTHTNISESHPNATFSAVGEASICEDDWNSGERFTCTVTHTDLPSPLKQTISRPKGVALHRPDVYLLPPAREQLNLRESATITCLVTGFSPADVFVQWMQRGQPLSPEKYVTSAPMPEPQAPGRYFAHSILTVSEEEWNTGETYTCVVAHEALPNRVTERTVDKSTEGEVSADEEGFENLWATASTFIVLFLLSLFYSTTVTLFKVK

In the case of “TTTTTTTATCTAACTGCTGCGCCGCCGGGAAAATACTGTACGGTTAGA [Lipo-sgc8-TMR]”, the Kd in data set [1] is 0.8 nM.

In data set [2], AACACCGGGAGGATAGTTCGGTGGCTGTTCAGGGTCTCCTCCCGGTGA (ssDNA, 5'-diacyl lipid tail-(CH2CH2O)24; self-assembled micelle) [TDO5-micelle (lipid-TDO5)] had a Kd of 116 nM.

In data set [3], AACACCGGGAGGATAGTTCGGTGGCTGTTCAGGGTCTCCTCCCGGTGA (ssDNA) [TDO5] came in with a Kd of 88 nM.
